Assay results published in PMC10871292.

Molecular target: Transglutaminase 2 (TG2), wildtype, human, recombinant (human) (UniProt P21980)
Experiment: SAXS

“Transglutaminase 2 (TG2), wildtype, human, recombinant (from UniProt P21980 1-687) (enzyme)” showed a percent dimer (initial state, t=0 ms) of 61% and a percent monomer (initial state, t=0 ms) of 39%.
